Residue numbers refer to the chain shown, from its start.
B1: anti-human IL-1 beta monoclonal IgG antibody MAB201 (antibody, from another filing, V domains shown)
VH: QVTLKESGPGILKPSQTLSLTCSFSGFSLSTSGMGVGWIRQPSGKGLEWLAHIWWDGDESYNPSLKTRLTISKNTSRNQVFLKITTVDTVDTATYFCARNRYDPPWFVDWGQGTLVTVSS
VL: DIQMTQTTSSLSASLGDRVTISCRASQDISNYLSWYQQKPDGTVKLLIYYTSKLHSGVPSRFSGSGSGTDYFLTISNLEQEDIATYFCLQGKMLPWTFGGGTKLEIK
B2: canakinumab IgG (Novartis, ILARIS) (antibody, V domains shown)
VH: QVQLVESGGGVVQPGRSLRLSCAASGFTFSVYGMNWVRQAPGKGLEWVAIIWYDGDNQYYADSVKGRFTISRDNSKNTLYLQMNGLRAEDTAVYYCARDLRTGPFDYWGQGTLVTVSS
VL: EIVLTQSPDFQSVTPKEKVTITCRASQSIGSSLHWYQQKPDQSPKLLIKYASQSFSGVPSRFSGSGSGTDFTLTINSLEAEDAAAYYCHQSSSLPFTFGPGTKVDIKR
B3: DLX2681 (scFv)
scFv: EIVMTQSPSTLSASVGDRVIITCRASQSIGNWLSWYQQKPGKAPKLLIYRASNLASGVPSRFSGSGSGAEFTLTISSLQPEDFATYYCQNTGGGINIAFGQGTKLTVLGGGGGSGGGGSGGGGSGGGGSEVQLVESGGGNVQPGGSLRLSCTASGFSLSNSAMAWVRQAPGKGLEWVGIIYDSASTYYASWAKGRFTISRDNSKNTVYLQMNSLRAEDTATYYCARERAIFSGDFALWGQGTLVTVSS
B4: DLX2693 (scFv)
scFv: ADIVMTQSPSTLSASVGDRVTITCQASQSISSYLSWYQQKPGKAPKLLIYRASTLASGVPSRFSGSGSGAEFTLTISSLQPDDFATYYCQNTGGGINIAFGQGTKLEIKRGGGGSGGGGSGGGGSGGGGSEVQLVESGGGNVQPGGSLRLSCTASGFSLSNSAMAWVRQAPGKGLEWVGIIYDSASTYYASWAKGRFTISRDNSKNTVYLQMNSLRAEDTATYYCARERAIFSGDFALWGQGTLVTVSS
B5: DLX2464 (scFv)
scFv: EIVMTQSPSTLSASVGDRVIITCQASQSIDNWLSWYQQKPGKAPKLLIYRASTLASGVPSRFSGSGSGAEFTLTISSLQPDDFATYYCQNTGGGVSIAFGQGTKLTVLGGGGGSGGGGSGGGGSGGGGSEVQLVESGGGLVQPGGSLRLSCTASGFSLSSAAMAWVRQAPGKGLEWVGIIYDSASTYYASWAKGRFTISRDTSKNTVYLQMNSLRAEDTAVYYCARERQIFSGDMAGWGQGTLVTVSS
B6: DLX2476 (scFv)
scFv: B5 scFv with D30S, N31S, Q229D, M235F, A236V
B7: DLX2475 (scFv)
scFv: B5 scFv with N31K, R50Q, S96H, A161Y, Q229A, M235F, A236K, G237L
B8: DLX2466 (scFv)
scFv: B5 scFv with D30G, N31K, W32Y, T91A, A161D, Q229N
B9: DLX2465 (scFv)
scFv: B5 scFv with Q229N, A236D, G237L
B10: DLX2467 (scFv)
scFv: B5 scFv with D30H, T53N, V95S, S160R, Q229M, M235F, A236V, G237L
B11: DLX2480 (scFv)
scFv: B5 scFv with V95I, S96N, S160D, M235F, A236V, G237L
B12: DLX2468 (scFv)
scFv: B5 scFv with D30G, W32Y, T91A, V95T, A161S, Q229N, A236V, G237L
B13: DLX2528 (scFv)
scFv: EIVMTQSPSTLSASVGDRVTITCQASQSIGNWLAWYQQKPGKAPKLLIYQASNLASGVPSRFSGSGSGTDFTLTISSLQPDDFATYYCQNAGGATTIAFGQGTKLTVLGGGGGSGGGGSGGGGSGGGGSEVQLVESGGGLVQPGGSLRLSCTASGFSLSSAAMAWVRQAPGKGLEWVGIIYDSASTYYASWAKGRFTISRDTSKNTVYLQMNSLRAEDTAVYYCARERAIFSGDFVLWGQGTLVTVSS
B14: DLX2586 (scFv)
scFv: B5 scFv with A153V, A161Y, A164S, V177I, R200K, Y223F, A236D
B15: DLX2545 (scFv)
scFv: B5 scFv with V177I, V207L, Y223F, Q229N, A236V, G237L, L243T
B16: DLX2547 (scFv)
scFv: B4 scFv with N141L, N161S, S162A, N203T, T222V, A237V
B17: DLX2692 (scFv)
scFv: B4 scFv with N161D, S162A, Y188F, V208L, A230N, F236M, L244T
notes: tested as cleared E. coli lysate; also called DLX2547_2530
B18: DLX2690 (scFv)
scFv: ADIVMTQSPSTLSASVGDRVTITCQASQSISSYLSWYQQKPGKAPKLLIYKASTLASGVPSRFSGSGSGTDFTLTISSLQPEDFATYYCQNAGGGINIAFGQGTKVEIKRGGGGSGGGGSGGGGSGGGGSEVQLVESGGGLVQPGGSLRLSCTVSGFSLSSYAMSWVRQAPGKGLEWIGIIYDSASTYYASWAKGRFTISKDTSKNTLYLQMNSLRAEDTAVYFCARERQIFSGDMDGWGQGTTVTVSS
notes: tested as cleared E. coli lysate; also called DLX2544_2548

Target: T1, recombinant human IL-1 beta (human, UniProt P01584 117-269)
Test: cell-based or functional assay

IC50 of IL-1 beta-induced IL-6 release from human dermal fibroblasts | Binder
0.002 to 0.003 nM | B1

Target: T1, recombinant human IL-1 beta
Test: cell-based or functional assay
Remark: another data set of the same source

IC50 of IL-1 beta-induced IL-6 release from human dermal fibroblasts | Binder
0.09 nM | B2
0.0006 nM | B3
0.0125 nM | B4

Target: T1, recombinant human IL-1 beta
Test: cell-based or functional assay
Remark: another data set of the same source

IC50 of IL-1 beta-induced IL-6 release from human dermal fibroblasts | Binder
0.004 nM | B5
0.1 nM | B6
0.2 nM | B7
0.3 nM | B8
0.004 nM | B9
0.025 nM | B10
0.005 nM | B11
0.015 nM | B12

Target: T1, recombinant human IL-1 beta
Test: cell-based or functional assay
Remark: another data set of the same source

IC50 of IL-1 beta-induced IL-6 release from human dermal fibroblasts | Binder
0.008 nM | B13
0.002 nM | B14
0.007 nM | B15
0.03 nM | B16

Target: T1, recombinant human IL-1 beta
Test: ELISA, cleared E. coli lysate on coated rhIL-1 beta
Protocol: The resulting scFv mutants are expressed in 96-well format in 1 ml cultures in E. coli BL21 (DE3) (Novagen, USA, cat. no. 69450-3). […] Cells were lysed in lysis buffer (1 mM EDTA, 0.1 mg/ml lysozyme, PBS pH 7.2) in a 96-well format by freezing and subsequent thawing. Derived crude extracts were cleared by centrifugation. Supernatants were added to wells of a microtiterplate coated with 50 ng/ml of rhIL-1 beta (Peprotech) per well. After washing, bound scFvs are detected by ProteinL-HRP and binding to rhIL-1 beta quantified by BM Blue POD Substrate (Roche Applied Science).

binding result | Binder
binds | B17
binds | B18
